According to US20260132182A1 (published 2026):
Starred links: 1 amine or outer side, 2 acyl side, 3 side chain; linkers in the order of their positions; H or OH if unused. Non-standard residues stand in square brackets, D forms with d. Groups on a side chain read outwards from the residue. No end group written: not given here. *: point of attachment. C20 diacid = O=C(O)CCCCCCCCCCCCCCCCCCC(=O)*; C18 diacid = O=C(O)CCCCCCCCCCCCCCCCC(=O)*; C16 diacid = O=C(O)CCCCCCCCCCCCCCC(=O)*; γGlu = O=C(O)[C@H](CCC(=O)[*:2])N[*:1]; εLys = N[C@@H](CCCCN[*:1])C(=O)[*:2]; Trx = NC[C@H]1CC[C@H](C(=O)O)CC1; AEEA = NCCOCCOCC(=O)O; Aib = CC(C)(N)C(=O)O

T1: human amylin-3 (a) receptor (human, UniProt P30988 25-474; O60896 24-148)
T1 sequence (looked up) 1: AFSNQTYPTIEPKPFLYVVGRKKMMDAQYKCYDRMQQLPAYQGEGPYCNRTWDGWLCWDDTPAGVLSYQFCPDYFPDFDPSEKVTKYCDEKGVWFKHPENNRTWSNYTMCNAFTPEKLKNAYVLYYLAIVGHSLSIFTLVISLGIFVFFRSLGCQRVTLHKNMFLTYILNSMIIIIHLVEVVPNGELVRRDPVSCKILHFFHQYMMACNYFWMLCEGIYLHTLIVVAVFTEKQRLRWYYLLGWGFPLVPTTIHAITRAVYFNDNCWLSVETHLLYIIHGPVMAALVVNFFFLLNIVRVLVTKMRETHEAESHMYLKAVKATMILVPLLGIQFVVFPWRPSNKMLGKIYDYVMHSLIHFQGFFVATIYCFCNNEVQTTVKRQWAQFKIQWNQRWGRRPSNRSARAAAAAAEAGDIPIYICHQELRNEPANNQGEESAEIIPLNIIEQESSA
T1 sequence (looked up) 2: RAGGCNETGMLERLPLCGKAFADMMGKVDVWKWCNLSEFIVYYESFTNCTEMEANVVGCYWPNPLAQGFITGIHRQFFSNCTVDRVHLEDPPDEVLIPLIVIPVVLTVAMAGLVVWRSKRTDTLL

B1: Comparator compound 0192 (peptide)
peptide: H[Aib]EGTFTSDVSSYLEEQAAREFIAWLVRGRK([AEEA-AEEA-γGlu-Trx-C20 diacid])GGGGEASELSTAALGRPSAELHELATLPRTETGSGSP-NH2
B2: Comparator compound 0164 (peptide)
peptide: H[Aib]EGTFTSDVSSYLEGQAAKEIFAWLVRGRK([εLys-AEEA-AEEA-γGlu-C18 diacid])GGEASELSTAALGRLSAELHELATLPRTETGSGSP-NH2
B3: Comparator compound 0167 (peptide)
peptide: H[Aib]EGTFTSDVSSYLEEQAAREIFAWLVRGRK([AEEA-AEEA-γGlu-Trx-C20 diacid])GGGGEASELSTAALGRLSAELHELATLPRTETGSGSP-NH2
B4: Comparator compound 0015 (peptide)
peptide: H[Aib]EGTFTSDVSSYLEGQAAK([AEEA-AEEA-γGlu-C18 diacid])EFIAWLVRGRGGQEPGQEPCNTATCATQRLAEFLRHSSNNFGPILPPTNVGSNTP-NH2
modifications: ends and bridges not checked
B5: Comparator compound 0016 (peptide)
peptide: H[Aib]EGTFTSDVSSYLEGQAAK([AEEA-AEEA-γGlu-C18 diacid])EFIAWLVRGRGGQEPGQEPK([AEEA-AEEA-γGlu-C18 diacid])CNTATCATQRLAEFLRHSSNNFGPILPPTNVGSNTP-NH2
modifications: ends and bridges not checked
B6: Comparator compound 0668 (peptide)
peptide: H[Aib]EGTFTSDVSSYLEGQAAK([AEEA-AEEA-γGlu-C18 diacid])EFIAWLVRGRGGQEPGQEPK([γGlu-γGlu-C16 diacid])CNTATCATQRLADFLRHSSPNFGAIPSSTNVGSRTY-NH2
modifications: ends and bridges not checked
B7: Comparator compound 0185 (peptide)
peptide: H[Aib]EGTFTSDVSSYLEGQAAKEFIAWLVRGRK([εLys-AEEA-AEEA-γGlu-C18 diacid])GGEASELSTAALGRPSAELHELATLPRTETGSGSP-NH2
B8: Compound 0111 (peptide)
peptide: H[Aib]EGTFTSDVSSYLEEQAAREFIAWLVRGRK([AEEA-AEEA-γGlu-C18 diacid])GGGGEASELSTAALGRLSAELHELATLPRTETGSGSP-NH2
B9: Comparator compound 0672 (peptide)
peptide: H[Aib]EGTFTSDVSSYLEEQAAREFIAWLVRGRK([AEEA-AEEA-γGlu-C18 diacid])GGGGEKCNTATCATQRLAEFLRHSSNNFGPILPPTNVGSNTP-NH2
modifications: ends and bridges not checked
B10: Comparator compound 0671 (peptide)
peptide: H[Aib]EGTFTSDVSSYLEEQAAREFIAWLVRGRK([AEEA-AEEA-γGlu-C18 diacid])GGGGEKCNTATCATQRLANFLVHSSNNFGPILPPTNVGSNTY-NH2
modifications: ends and bridges not checked
B11: Compound 0120 (peptide)
peptide: H[Aib]EGTFTSDVSSYLEEQAAREFIAWLVRGRK([AEEA-AEEA-γGlu-Trx-C20 diacid])GGGGEASELSTAALGRLSAELHELATLPRTETGSGSP-NH2
B12: Compound 0115 (peptide)
peptide: H[Aib]EGTFTSDVSSYLEEQAAREFIAWLVRGRK([AEEA-AEEA-γGlu-C18 diacid])EASELSTAALGRLSAELHELATLPRTETGSGSP-NH2
B13: Compound 0114 (peptide)
peptide: H[Aib]EGTFTSDVSSYLEEQAAREFIAWLVRGRK([AEEA-AEEA-γGlu-C18 diacid])GGEASELSTAALGRLSAELHELATLPRTETGSGSP-NH2
B14: Compound 0116 (peptide)
peptide: H[Aib]EGTFTSDVSSYLEEQAARK([AEEA-AEEA-γGlu-C18 diacid])FIAWLVRGRK([AEEA-AEEA-γGlu-C18 diacid])GGEASELSTAALGRLSAELHELATLPRTETGSGSP-NH2

molecular target: T1, human amylin-3 (a) receptor; assay: cell-based or functional assay

Binder | Human AmyR3 potency [EC50 (pM)] [pM]
B1 | 10000
KCNTATCATQRLANFLVHSSNNFGPILPPTNVGSNTY [Pramlintide] | 7.8
B2 | 29.6
B3 | 10.9
B4 | 312
B5 | 1550
B6 | 10000
B7 | 5660

molecular target: T2, human GLP-1 receptor (human, UniProt P43220 24-463); assay: cell-based or functional assay

Binder | Human GLP-1R potency [EC50 (pM)] [pM]
B1 | 10.8
B2 | 852
B3 | 10000
B4 | 45
B5 | 510
B6 | 455
B7 | 13.1

molecular target: T1, human amylin-3 (a) receptor; assay: cell-based or functional assay; remark: another data set of the same source

Binder | Human AmyR3 potency [EC50 (pM)] [pM]
EASELSTAALGRLSAELHELATLPRTETGSGSP-NH2 (not fully specified) [Compound 1806] | 5
KCNTATCATQRLANFLVHSSNNFGPILPPTNVGSNTY [Pramlintide] | 7.8
B8 | 11.5
B9 | 606
B10 | 230

molecular target: T2, human GLP-1 receptor; assay: cell-based or functional assay; remark: another data set of the same source

Binder | Human GLP-1R potency [EC50 (pM)] [pM]
B8 | 3
B9 | 2.2
B10 | 4.5

molecular target: T1, human amylin-3 (a) receptor; assay: cell-based or functional assay; remark: another data set of the same source

Binder | Human AmyR3 potency [EC50 (pM)] [pM]
B8 | 11.5
B11 | 10.6
B12 | 22.8
B13 | 17.5
B14 | 21.7

molecular target: T2, human GLP-1 receptor; assay: cell-based or functional assay; remark: another data set of the same source

Binder | Human GLP-1R potency [EC50 (pM)] [pM]
B8 | 3
B11 | 9.1
B12 | 2.2
B13 | 1
B14 | 1.5
